Results as given in patent US10398755B2, “Clusterin pharmaceuticals and treatment methods using the same” (UNIVERSITY OF SOUTHERN CALIFORNIA, priority 2009, dated 2019).

System: MMP-9
Assay: MMP inhibition assay (FRET peptide substrate), APMA-activated pro-MMP-9
Format: biochemical
Description: Pro-MMP-9 (A) or pro-MMP-2 (C) was incubated with PBS, CLU (50 μg/ml, or 0.63 μM), SB3-CT (2 μM), or BSA (50 μg/ml), and MMP FRET substrate peptides in the presence and absence of […] APMA at RT for 3 h. RFU, relative fluorescence unit, was obtained by considering the read out in PBS as 100%. Each reaction was performed in triplicate. Standard errors were depicted as a bar in each graph. Differences between values of PBS and CLU or SB-3CT reactions were statistically significant by Student t-test: *P=0.0004, **P=0.0001, +P=0.0003, and ++P=0.01. Gelatin zymography was performed with the samples pooled from each reaction set. Pro-MMPs, processed MMPs (MMP-9 or MMP-2), and C-terminal truncated, processed MMP-9 (MMP-9-ΔC) were indicated by arrows. (B) Dose-dependent inhibition of MMP-9 by CLU or SB-3CT was performed in the same condition. MMPs were mixed with CLD in TSCB buffer, 50 mM Tris-HCI, pH, 7.5, 150 mM NaCl, 5 mM CaCl2, 0.002% Brij35 (or otherwise indicated concentration) 30 min prior to substrate addition, and incubated for 3 h at RT in the presence or absence of 0.02 mM p-aminophenylmercuric acetate (APMA). MMP activity was measured using a 5-FAM/QXL520 fluorescence resonance energy transfer (FRET) peptide as a substrate (EXlEm=490 nm/520 nm) (AnaSpec, Fremont, Calif.), according to the manufacturer's protocol. Relative fluorescence unit (RFU) was obtained by subtracting the values of APMA- or enzyme-omitted reactions from those of test samples, and then considering the fluorescence unit of a PBS (vehicle) sample as 100%. Enzyme reactions were performed in black 96-well plate, containing combinations of 10 ng, 5 ng, 5 ng, 10 ng, 2.5 μg, 2.5 μg of MMP-2, MMP-7, catalytic domain of MMP-9, MMP-9, CCLU, and/or BSA, respectively, in 50 μl reaction volume. As MMP substrates (0.4 μM), 520 MMP FRET substrate […] (SEQ ID NO: 9), was used for MMP-2 and MMP-9, and 520 MMP FRET substrate XIV, […] (SEQ ID NO: 10), used for MMP-7 reactions, both of which were purchased from AnaSpec (Fremont, Calif.). Recombinant proteins such as mouse CLU with C-terminal (His)6 (CLU-His), MMP-2, and MMP-7 were purchased from R&D Systems (Minneapolis, Minn.), MMP-9 was purchase from Ana-Spec, Inc. (San Jose, Calif.). The recombinant catalytic domain of human MMP-9 (residue 112-445) was purchased from ProtEra (Sesto Fiorentino, Italy). A gelatinase-specific synthetic inhibitor, SB-3CT, was obtained from Biomol International (Plymouth Meeting, Pa.). Fluorescence was monitored using a Victor^3TM V multilabel counter (PerkinElmer). For the gelatin digestion, a 50 μl mixture of gelatin (20 μg) and CLU (2 μg) was incubated with or without active MMP-9 (70 ng) for 2 hours at 37° C. The reaction products were run on a 12% denaturing SDS/PAGE gel for Coomasie staining. […] To determine whether MMP-9/CLU interaction affects the cleavage process of the propeptide of MMP-9 and/or interferes with enzymatic activity of the processed active enzyme, we performed an in vitro MMP-9 inhibition assay, by adopting FRET assay using a fluorescence-quenched peptide substrate (FIG. 3A). […] We incubated pro-MMP-9 with PBS, CLU, SB-3CT, or BSA, and a fluorescence peptide substrate in the presence or absence of APMA. […] We monitored the change in fluorescence value during the incubation of the reactions up to 3 h, which reflects the enzymatic activity of APMA-activated MMPs. […] At 3 h post incubation, the activity difference was read and reaction products were resolved by gelatin zymography. […]

B1: CLU: secreted disulfide-linked heterodimeric glycoprotein (70-80 KD); assays used recombinant mouse CLU with C-terminal (His)6 (protein, UniProt Q06890 22-448, looked up)
Clusterin: EQEVSDNELQELSTQGSRYINKEIQNAVQGVKHIKTLIEKTNAERKSLLNSLEEAKKKKEDALEDTRDSEMKLKAFPEVCNETMMALWEECKPCLKHTCMKFYARVCRSGSGLVGQQLEEFLNQSSPFYFWMNGDRIDSLLESDRQQSQVLDAMQDSFARASGIIDTLFQDRFFARELHDPHYFSPIGFPHKRPHFLYPKSRLVRSLMSPSHYGPPSFHNMFQPFFEMIHQAQQAMDVQLHSPAFQFPDVDFLREGEDDRTVCKEIRRNSTGCLKMKGQCEKCQEILSVDCSTNNPAQANLRQELNDSLQVAERLTEQYKELLQSFQSKMLNTSSLLEQLNDQFNWVSQLANLTQGEDKYYLRVSTVTTHSSDSEVPSRVTEVVVKLFDSDPITVVLPEEVSKDNPKFMDTVAEKALQEYRRKSRAE
modifications: C-terminal His6 tag
average inhibition of MMP-9, three independent experiments in triplicate (50 μg/ml of CLU, p=0.002): 35% | effect on APMA-induced processing of pro-MMP-9 (zymography) (APMA-treated reactions): did not affect the enzyme processing by APMA | inhibition of the activity of MMP-9 (CLU 50 μg/ml (0.63 μM), APMA, RT 3 h, 0.002% Brij 35, compared with PBS and BSA): 28% | dose-dependent inhibition of MMP-9, comparison with SB-3CT (FIG. 3B): stronger MMP-9 inhibitor than a synthetic gelatinase inhibitor, SB-3CT | MMP-9 inhibition at high detergent concentration (pro-MMP-9 or APMA-activated MMP-9, 0.04% Brij 35 or NP-40): little MMP-9 inhibition
